The text below walks through data of the DeepSol protein solubility set.

The data set in a line: soluble on expression in E. coli; label from the status in PepcDB or PDB records.
As to “MARLARFWDSLENENLFDIVPQPPKSTVTRFHQQWLSSLANARDDELQTILYAKPLLPTPESIVQLPDEEYYGAKKISVGYR”, the “soluble on expression in E. coli” value was “not soluble”.

With “MGSDKIHHHHHHMDLQNKTLLITGIDEFIGLRAAELAITQGMKVRGLQTSTNKDKAQKLGAEVIVGSITDAAIAHKACQGVDIVLHTEQLTEEAGPIKNFREINVNGAVNMAKAAKNAGVKCFVHLSSVMVYGFNYSDRITESGTLSGDNNPYCQTKIEAETELLPLNSPPDFGLIIIRAGDIYGPGSIPWIVRPILMMRQKLFAYANEGQGVINHVYIDNLIDAIFLAVEKDAYGEIFNITDGEETSWKEYFMRLAAMEGASAPMSIPKDEMKLFLKLRNQGQKLFRKKADILPESVDFMTRPYAYSITKAQTILDYKPKVDLEQGLSQTKIWLQNTDIQKLVK”, the “soluble on expression in E. coli” value is “not soluble”.

On to “MKKLEVKDLKENFFEAIGKEWMLVTAGTKEKFNTMTASWGGIGWLWNKPVAFVFVRPERYTYEFIEKSDYLTLSFLGEANKKIHAVCGSKSGRDTDKVKATGLKPVFTEQGNVLFEQARLSLEGRKLYADNIKPECFLDKESLEKWYDDAHGGFHKMYIVEIENIWEGD”, for which the “soluble on expression in E. coli” value was “not soluble”.

Regarding “MGSDKIHHHHHHMTIYSWNALYLGNAGDIDSYEGDLYAEGASNILGSYGSPGDPLYDHIVDVVVNDADDDTDINSDNYDFWSPDAMTVDGVAHTLDSGVVYNATLTYADGSTANITAVVIQTTDGDLYLAPEMTANDDWVAMEAKAIVSVSLDSVSVDTTYIAANRQQTNFICFAAGTRIATPKGARPVETLAVGDLVQTLDHGPQPIRWIGTRRVGLATQLLSHGVAPVVIPAHSFAPSIPTHPLLLSQQHRVLLRSRIARRMYGSDEILIAARRLTGLHGIALRPATGPVRYIHFALDRHEIVFANGLPAETLLLGAEVERVLGTDVFTQIEQSQNRGAIALAMRPARPIVEGRRARSFVERLRNRACRHALANPIKVPQNRVTGLISLVSPPG”, the “soluble on expression in E. coli” value is reported as “not soluble”.

For “MSLQSYADALSAKGYRSFGFDTDMEMDMDMGCTTMRRIEKRKGGDLADSPVDEKAEADVEVTNEISAPYEVPQFPIEQIEKKLQIQRHLNEKQATGPRPVATAAVLATNRESSSSTEGRESAVTMERNDADINFQRVSISGEDTSGVPLEDLERASTLLIEALRLRSHYMAMSDQSFPSTTARFLKTVKLKDRINNLPVKEVSESADVHLRHSPMKITNPWNVEFPNDEDFKIKPLNGVFHIYENDDESSEIKYEYPDMSQFVNDMQVMCNMIADGPLKSFCYRRLCYLSSKYQMHVLLNELRELAAQKAVPHRDFYNTRKVDTHIHAASCMNQKHLLRFIKKTLKNNANEVVTVTNGQQMTLAQVFQSMNLTTYDLTVDMLDVHADRNTFHRFDKFNSKYNPIGESRLREVFLKTDNYLNGKYFAQIIKEVAFDLEESKYQNAELRLSIYGKSPDEWYKLAKWAIDNDVYSSNIRWLIQIPRLFDIFKSNKMMKSFQEILNNIFLPLFEATARPSKHPELHRFLQYVIGFDSVDDESKPENPLFDNDVPRPEEWTYEENPPYAYYIYYMYANMTVLNKFRQSRNMNTFVLRPHCGEAGPVQHLVCGFLMAENISHGLLLRKVPVLQYLYYLTQIGIAMSPLSNNSLFLNYHRNPLPEYLARGLIISLSTDDPLQFHFTKEPLMEEYSIAAQVWKLSSCDMCELARNSVMMSGFPHAIKQQWLGPIYYEDGIMGNDITRTNVPEIRVAYRYETLLDELSNIFKVNQTCSIADMNATEGHHHHHH”, the “soluble on expression in E. coli” value is given as “soluble”.

Turning to “MGSDKIHHHHHHMYKVIIIDDEKAAIETLRRDLEVQTDLEIKGTAGNGAKGKKLIMDIHPDLLFLDIELPDIQGIRLLSEIREQVLWDMKVVFYTAYDKYLLQALRESAFDYLLKPYDIEELNLIIERYRKTMASARPLPSFASAVGTLMPGRDLFMISTVTGFRFLRLEEIGYFEYLKDKRLWQVELFNQTKLCLKKNTTAGDIIGYSDAFVQISQSAIININYLAMIKSKQCLLYPPFSDKEDLIISRGFLKELQERFCII”, the “soluble on expression in E. coli” value is listed as “not soluble”.

On to “SSEWMKKGPLEWQDYIYKEVRVTASEKNEYKGWVLTTDPVSANIVLVNFLEDGSMSVTGIMGHAVQTVETMNEGDHRVREKLMHLF”, for which the “soluble on expression in E. coli” value was “soluble”.

“MQAVGLITEYNPLHNGHRYHLRQAQQLTNADCVIVVMSGDWLQRGEPAILDKWTRAKLALENGADLVIELPVFFATQPAHLFARGGIELLSALDCTSVVFGAEHPELDFQRLATAIAARQGSFTHYNATFATQFNAALQAATGVTLTAANDMLSFCYYAANQTLAHPMQLLPIKRRQADHATTTIAADSRYASGTAVRQAALAQDWAALKPVVPADTFTALTTQRLQ”: the “soluble on expression in E. coli” value is on record as “not soluble”.

As for “MGSDKIHHHHHHAEISDKVIRIGVLNDQSGVYADIAGTGSVEAARMAAEEFGGEIDGAKIEFVSADHQNKADIAANVANQWIDTGGVDAIVDIPNSSAMLAVQEIGRTKKRIVIASGGGSTDFTGPKCSPYGFHWTYDTYSLAKGTAESLVKDGGTTWYNIVVDYAFGHSLDTDTSRFITQAGGQVVGRVLHPLGTSDFSSYLLQAQGSGAKVIGVLSAGADTVNAIKQAAEFGITQGGQILAGLLIFDQTVHSLGLETAQGLRLTTGFYWDRTDATRAWSAEFLKRSTKNIPSMAHAGVYSGVRHYLAAIKAAGTDNADAVAAKMRETPVNDMFAENGTVRADGRMVHDMYLMEVKKPADSTSEWDLMRLVHVIPGEEAYRPLAEGGCPLVQ”, the “soluble on expression in E. coli” value was “not soluble”.

Regarding “MGSDKIHHHHHHMTTSTPSASPLALSPSRANDYQQCPLLYRFRAIDKLPEPKTVAQVKGTLVHAVLEEMHGWPRNERLFPAAVKRLKPHWSLMCSKDTELVSLVPEEDTYDFLVECRSLLRGYFEMENPQGFDALACEMYVNATLPNGVPIRGFIDRVDKAPTGEIRVVDYKTGKKPIPRFSQQAQFQMRFYALVYWRIYGRIPDQLRLMYLKVADSMFLTPSREELEYFERDIQELWEKIVTDGETGQFRPKTSKLCGWCSFQNLCPAFDGTPPAYPGWPGIADAPPCSTVDASKGLTG”, the “soluble on expression in E. coli” value is given as “not soluble”.

“MATPTFDTIEAQASYGIGLQVGQQLSESGLEGLLPEALVAGIADALEGKHPAVPVDVVHRALREIHERADAVRRERFKAMAAEGVKYLEENREKDGVNSTESGLQFRVLTQGEGAIPARTDRVRVHYTGKLIDGTVFDSSVARGEPAEFPVNGVIAGWIEALTLMPVGSKWELTIPQELAYGERGAGASIPPFSTLVFEVELLEIL”: the “soluble on expression in E. coli” value is reported as “not soluble”.

Take “MAAISFLGDLIQTISDRGRDLIGLARSDLARTASAADLARFCEDLISRRGEASGVALARLILDRYAAFPLEDRLAFLELIATEFGADHDAVDAAIAAYRADPTRARLGLLHVAAEPRSQELIRRLNLARGGTLALVRMREDLFTLRKRLKDREAAPETIDATVSLDSDFEHLFASWFNRGFLVLRPIDWSTPADILEKIIRYEAVHEIADWDELRRRIQPTDRRCFAFFHPALLDEPLIFVEVALTNAIAPAIQPILADGREPVPARSATTAIFYSISNCQKGLAGVTFGNFLIKQVVEDLAREIPSLKTFVTLSPVPGFRTWLDRERGAGAPQGLTREDVEALRLLDTEDWRSDKTKCEAVRRAMLPAAAAYFLRAKNEKGRPLDPVARFHLGNGARLERMNFLGDTSKKGLKQSYGLMVNYLYDLSAIEKNHETYVNLGTVATSSAVSRELRSNLPPPRAVVLAEAGLEHHHHHH”: the “soluble on expression in E. coli” value is listed as “not soluble”.

For the sequence “MSLKRVLAVQRISRDTEASSALTRQDEALTRAIRQGTYREVGRVVDATVSGAVHLDQRPSLRRWLAEPLVHEWDVLMVTEQDRITRDDMHWWHFVDWTLKNGKDVEVLDDPTFDIQSEDGRMLAGIKAAQAAKYRKAVQAKQLDRTQFFRENRLWNGGVWPFGYRAEVFSHLGERRKRLTVDPCTSRLVREAYDRLVHGEGTVYAVARDWNLRGVPSARDHQRREQNKDLPEQEHRPEKGTRWSVTPLRNILRSPALMGVMMHRSEPVLDAEGQPVVWAEPVLTSEEFAELQEVVLTEQRTAESGPGKRWRTPLLGVVFCMCGRPMYVRHQKNHLADGTTAVLTYYQCRSVSEMNRCEAPSTWRAESLCAVVERDFLDQAGDRTEMKRTYVPGRDHTAAIAELRSALANLTVAIGTATAPAAVAVLTRQMDEHARTITRLEAEPVVHARWKEEPTGAAYREQWRAVKDWESRAALLAKAGVRFFCEGTHKSGSVHMYLPSASQRRVSGVSLSKEAVEVVGIGPLEEEARRYFTDLRRTKGMGPGFWYSREGHHHHHH”, the “soluble on expression in E. coli” value is recorded as “not soluble”.

On to “MAELLLGVNIDHIATLRNARGTDYPDPVQAAFIAEQAGADGITVHLREDRRHITDRDVRILRQTLHTRMNLEMAVTEEMLAIAVETRPHFCCLVPEKRQEVTTEGGLDVAGQRDKMRDACARLAAAGIQVSLFIDADETQINAAAEVGAPFIEIHTGCYANAETDAEQAKELARIASAATLAARLGLKVNAGHGLTYHNVKAIAALPEMHELNIGHAIIGRAVMTGLKEAVAEMKRLMLEARG”, for which the “soluble on expression in E. coli” value is “not soluble”.

On to “MHPGIDSMSSNINCENNPFSFYGNPHKSVIIHGKEGTELLKEKGEDCKTFENSQQYFLWCCVQQQMYHYQLLSTAFASYGFEPPRIPGAFPHHIPPIFNGSMKCLRDREVFNQSGFLYVNVSPDTYQETRQEAPVEQRNQWSEKSKTTSKKSICKVLFECTNSSLLENAENRSIFSKQGSGSHVGENSKNPSEDSGQSGRLSQNATAEHNVLEKHLQEEYQMAKNTVNESFDSLKECSAASVIKGSYLLSQVVHIPEDAIEPEIPPDLQGPGGHVFLRMLSRSWRQYKRALEHNE”, for which the “soluble on expression in E. coli” value is listed as “not soluble”.

In the case of “IFEDEEDQITKVDSLKKEGNNFFANGEFEKANEKYQEAIASCPPTSTEVQSILLSNSAAALIKLRKWESAVEAASKSIEIGATNEKALERRAFAYSNMSEKYENSIEDYKQLQESLPKRRVELDRKIAEINEKINNRNEAMKADVMEKLKGFGNFCLSPFGLSTDSFEMVPNGNGGFSVQMKGATNKQEGAS”, the “soluble on expression in E. coli” value is reported as “not soluble”.

In the case of “QVQLVQSGGGLVKPGGSLRLSCAASGFTFSSYAMSWVRQAPGKGLEWVSAISGSGGSTYYADSVKGRFTISRDNSKNTLYLQMSSLRAEDTAVYYCARPYLTYPQRRGPQNVSPFDNWGQGTMVTVSSASTKGPSVFPLAPSSKSTSGGTAALGCLVKDYFPEPVTVSWNSGALTSGVHTFPAVLQSSGLYSLSSVVTVPSSSLGTQTYICNVNHKPSNTKVDKKVEPKSCAAAHHHHHHGAAEQKLISEEDLNGAA”, the “soluble on expression in E. coli” value is on record as “soluble”.

“VRLSNPDILLNIHVSHEEVTLSLDSSGDSLHKRGYRVAETTAPLNEVLAAGILLKAGWDGSTDLIDPMCGSGTFLIEAALIACNIAPGIYRRGFAFQRWADFDLDLYDELFHDDSAERVFDHIIYGSDILPQAVAAARSNVERAGLGRYISLSVLPMQQRPKPESKAMLVMNPPYGERIKVEDMQQLYTMIGERLKHNYAGCSAWILAFKPEHFNHIGLRQSHREKLMNGALECELRGYELFEGRR”: the “soluble on expression in E. coli” value is recorded as “not soluble”.

For the sequence “GSEQQDLDDLAQVILSAVTSNTDTSKSARAQALSTALASSLADLLISESSGSSYQTQISALTNILSDCFVTTTGSNNPAFVSRVQTLIAVLSQSSSNAISGATGGSAFAQSQAFQQSA”, the “soluble on expression in E. coli” value is given as “soluble”.

With “MDYTASYYTDEELAKLFKAAKGDPLELPIVLAAYYGLRRSEIIGLRWDAIDFNPDDPKITIQFTVTEVNFGDGQGNVIIEKEGTKSKASKRTLPLVKPIADLLLQKKKDIENNRRLCGSCYNDKYLDFVHVNEIGERMKPNYISQHFALLLEKHGLKKIRFHDLRHSCASLLYANGVSLKQIQEWLGHSDISTTANIYTHLDYNSKIATANAILPVLFDQLEHHHHHH”, the “soluble on expression in E. coli” value is listed as “not soluble”.
